The text below walks through data of the nanobody polyreactivity screen of Harvey et al. (2022).

The nature of this data set: yeast display, Sf9 membrane polyspecificity reagent, FACS + sequencing; frameworks hold sequencing errors. The procedure, abridged:
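Using colony PCR, genes from sorted yeast display clones were amplified, then sequenced on MiSeq at 2 × 250 and filtered by CDR length. The clones had been stained with 10% biotinylated, detergent-solubilized Sf9 membrane reagent for 1 hour at 4 °C and sorted by FACS into low and high (top ~1%) gates on anti-HA and streptavidin fluorescence. Polyreactivity labels come from the gate of origin.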
Consider “QDQLVESGGCLVQAGGSLRLSCAASGSISDSKAMGWYRQAPGKERELVAAISNGGSTNYADSVKGRFTISRDNAKNTVYLQMNSLKPEDTAVYYCARDYDIQNHEYDYWGQGTQVTVSS”, for which the “polyreactivity (PSR sort gate)” value is “low polyreactivity”.

As for “QVQLVESGGGLVQAGGSLRLSCAASGRTFRRNAMGWYRQAPGKERELVAAINSGGSTYYADSVKGRFTISRDNAKNTDYLQMNSLKPEDTAVYYCAASGSKYVQSYSRYDYWGQGTQVTVSS”, the “polyreactivity (PSR sort gate)” value was “high polyreactivity”. For “QVQLVESGGGLVQAGGSLRLSCAASGFIFADNTMGWYRQAPGKERELVAAISRRGGSTYYADSVKGRFTISRDNAKNTVYLQMNSLKPEDTAVYYCAARPFVKHDYWGQGTQVTVSS” the value was “high polyreactivity”; for “QVQLVESGGGLVQAGGSLRLSCAASGFIISVYAMGWYRPAPGKERELVARIDSGGSTYYADSVKGRFTISRDNAKNTVYLQMNSLKPEDTAVYYGATDEGTVGGQQLRPLMDYWGQGTQVTVSS”, “low polyreactivity”; for “QVQLVESGGGLFQAGGSLRLSCAASGITFTRYAMGWYRQAPGKEREFVAAIRRSGGNTYYADSVKGRFTISRDNAKNTVYLQMNSLNPEDTAVYYCAASLRKTSPTRLVDYWGQGTQVTVSS”, “low polyreactivity”. With “QVQLVESGGGLVQAGGSLRLSCAASGINLAGYVMGGYRQAPGKERDLVADISSSGDSTYYADSVKGRFTISRDNAKNTVYLQMNSLLPEDTAVYYCAAEEIIPLIYKGYPFDYWGQGSQVTVSS”, the “polyreactivity (PSR sort gate)” value is recorded as “low polyreactivity”.

“QLQLVESGGGLVQAGGSLRLSCAASGRIFVRYAMGWYRQAPGKERELVAAISGRGTSTYYADSVKGRFTISRDNAKNTVYLQMNSLKPEDTAVYDCNTFSQPKWGTSDYDYWGQGTQVTVSS”: the “polyreactivity (PSR sort gate)” value is given as “high polyreactivity”. For “QVQLVESGGGLVQAGGSLRLSCAASGSTFGVNAKGWYREAPGKERELVAGITSSGGSTYYADSVKGRFTTSRDNAKNTVYLQMNSLKPEDTAVYYCAARWIPASYGYGYWGQGTQVTVSS” the value was “low polyreactivity”.

Regarding “QVQLVESGGGLVQAGGSLRLICAASGSIFLLYDMGWYRQAPGKERELVAAITWSGGSTYYADSVKGRFTISRDNAKNTVYLQMNSLKPEDTAVYYCAADEPYPTAYEYWGQGTQVTVSS”, the “polyreactivity (PSR sort gate)” value is given as “low polyreactivity”.

Take “QVQLVESGGGLVQAGGSLRLSCAASGITFSSYAMGWYRQAPGKEMELVAAISYGGGNTYYADSVKGRFTISRDNAKNTVYLQMNSLKPEDTSVYYCNTLYTSYSGLDYWGQGTQVTVSS”: the “polyreactivity (PSR sort gate)” value is listed as “high polyreactivity”.

With “QVQLVESGGGLGQAGGSLGLSCAASGRTFYVNAMGWYRQAPGKERELVAAISWSGGSTYYADSVKGRFTISRDNAKNTVYLPINSLNPEDTAVYYCAAEDIEDYEYWGQGTQVTVSS”, the “polyreactivity (PSR sort gate)” value was “low polyreactivity”. For the sequence “QVQLVESGGGLVQAGGSLRLSCAASGRLLPIYAMGWYRQAAGKERELVATISWTSDSTYYADSVKGRFTISRDNAKNTVYLQMNSLKPEDTAFYYCAREYTYNYASTVIYDHWGQGTQVTVSS”, the “polyreactivity (PSR sort gate)” value was “low polyreactivity”. For “QVQLVESGGGLVQAGGSLRLSCAASGSTFDYYAMGWYRQAPVKERELVAAITGTGGSTYYADSVKGRFTISRDNAKNTVYLQINRLKPEDTAVYYCAADTYLGWSYYWGQGTQVTVSS” the value was “high polyreactivity”. For “QVQLVESGGGLVQAGGSLRLSCSASGRIFFSYAMGWYRQAPGKERELVAAISRDGGTPYYADSVKGRFTISRDNAKNTVSLLLNSLKPEDTAVYYCADDWYLRRRIYGYWGQGTEVTVSS” the value was “high polyreactivity”; for “QVQLVESGGGLVQAGGSLRLSCAASGRTFGYNAMGWYRQAPGKERELVAAITWSGGSTYYADSVKGRFTISRDNAKNTVYLQMNSLKPEDTAVYYCNAYQRLSRAYGYWGQGTQVTVSS”, “high polyreactivity”.

With “QVQLLESGGGLVQAGGSLRLSCAASGSTFYCYTMGWYRQAPGKERELVARISSSGSTNYADSVKGRFTISRDNAKNTVYLQMNSLKPEDTAVYYCNKDWIYRGYDYWGQGTQVTVSS”, the “polyreactivity (PSR sort gate)” value is given as “high polyreactivity”. On to “QVQLVESGGGLVQAGGSLRLSCAASGSTFQYYPMGWYRQAPGKERELVAAISYRGSTYYADSVKGRFTISRDNAKNTVYLQMNRLKPEDTSVYYCAKGGTTWYWSGYRSIYFRYDYWGQGTQVTVSS”, for which the “polyreactivity (PSR sort gate)” value is “high polyreactivity”.

Take “QVQLVESGGGLVQAGGSLRLSCAASGITFLNYAMGWYRQATGKERELVAANDTRGGRTNYADSVKGRFTISRDNAKNTVYLQMNSVKPEDTEVYYCYALGYYVHKMDYWGQGTQVTVSS”: the “polyreactivity (PSR sort gate)” value is “low polyreactivity”.

As to “QVQLVESGGGLVQAGGSLRLSCAASGLTLRNSAMGWYRQAPGKERELVAAITTGGGRTYYADSVKGRFTISRDNAKNTVYLQMNSLKPEDTAVYYCAKKPSSARYVTIGFDYWGQGTQVTVSS”, the “polyreactivity (PSR sort gate)” value is “low polyreactivity”. With “QDQLVESGGGLVQAGCSLRFTCAACGRIFHYYAMGWYRQAPGKERELVAAITSSRGSTYYADSVKGRFTISRDNAKKTGYVQMNSLQPEDTAVYYCAAGLIVGRFVRYDYWGQGTHVTVSS”, the “polyreactivity (PSR sort gate)” value is recorded as “high polyreactivity”. For “QVQLVESGGGLVQAGGSLRLSCAASGIIFWYYAMGWYRQAPGKERELVASISGTGGTTYYADSVKGRFTISRDNAKNTVYLQMNSLKPEDTAVYYCAALSGQHDYDYWGQVTQVTVSS” the value was “low polyreactivity”; for “QVQLVESGGGLFQAGGSLRLTCAASGSTISDYAIGWYRQAPGKERELVAAISTRGGSTYYADSVKGRFTISRDNAKNTVYLQMNSLKPEDTAVYYCAKGGYVPKLEYWGQGTQVTVSS”, “high polyreactivity”; for “QVQLVESGGGLVQAGGSLRLSCAASGFTFAPYALGWYRQAPGKERELVAAIRRSGGSTYYADSVKGRFTISRDNAKNTVYLQMNSLKPEDTAVYYCAASTYQNGYGYWGQGTQVTVSS”, “high polyreactivity”. As to “QDQLVESGGGLVQAGGSLRLSCAASGRTFGTYAMGWYRQAPGKERELVAAISSSGGRTYYADSVKGRFTISRDNAKNTVYVLMHSLKPEVTAVYYFAKSRYATQTDYNYWGQGTQVTVSS”, the “polyreactivity (PSR sort gate)” value is given as “high polyreactivity”. For “QVQLVESGGGLVQAGGSLRLSCAASGSIYGLNAMGWYRQAPGKESELVAAITWSGGSSTYYADSVKGRFTISRDNAKNTVYLQMNSLKPVDTAVYYCAAGRVFIPYYFRFYYWGQGTQVSVSS”, the “polyreactivity (PSR sort gate)” value is listed as “high polyreactivity”.

As to “QVQLVESGGGLVQAGGSLRLSCAASGSIFGLYAMGWYRPAPGKERELVAAISRTGGSTYYADSVKGRFTLSRDNAKNTVYFQMHSLKPEETAVYYCAAKYQYTQYDYWGQGTQVTVSS”, the “polyreactivity (PSR sort gate)” value is reported as “high polyreactivity”. As for “QVQLVESGGGLVQAGGSLRLSCAASGSIFVKNAMGWYRQAPGKERELVARITYSGGSTYYADSVKGRFTISRDNAKNTVYLQMNSLKPEDTAVYYCAARYWYFPQTYYPGNDYWGQGTQVTVSS”, the “polyreactivity (PSR sort gate)” value is given as “high polyreactivity”.

“QVQLVESGGGLVQAGGSLRLSCAASGRIFKLYAMGLYRQAPGKERELVAASSKSGGSTYYADSVKGRFKISRDNAKNTVYLQMNSLKPEDSAVYYCNADPVRSGLDYWGQGTQVTVSS”: the “polyreactivity (PSR sort gate)” value was “high polyreactivity”. For “QVQLVESGGGLVQAGGSLRLSCAASGRTFYVNTMGWYRPAPGKEREFVAAITWRDGSTYYADSVKGRFTISRDNAKNTVYPQMNSLKPEDTAVYYCAARNSHDGYYDEYYYWGQGTQVTVSS”, the “polyreactivity (PSR sort gate)” value was “low polyreactivity”.

Regarding “QVQLVQSGGGLVQAGGSLRLSCAASGGTFQHNTMGWYRQAPGKEWQLVAAIRGSDGSTYYADSVKGRFTISRDNAKNTVYLQMNSLKPEDTAVYYCNRAYTASYIPGVGFWGQGTQVTVSS”, the “polyreactivity (PSR sort gate)” value was “high polyreactivity”. For “QVQLQESGGGMVQAGGSLRLSRATSGTISATKGMCRYRQAPGKERELVAGINYGGNTNYADNVKGRFTISRDNAKNTVYLQMNSLKPGDTAVYYCAAEPRGVTDLGYWGQGTQVTVSS” the value was “low polyreactivity”. Next, “QVQLVESGGGLVQAGGSLRLICAASGSIFAGNAMGWYRQAPGKERELVAAITWSGGSTYYADSVKGRFTISRDNAKNTVYLQMNSLKPEDTAVYYCAAPTQADVVGYDYWGQGTQVTVSS”: “low polyreactivity”; “QVQLVQSGGGLVQAGGSLRLICAASGRTFYGNAMGWYRQAPGKERELVAAISRSGGRTYYADSVKGRFTISRDNAKNTVYLQMISLKTEDTAVYYCAKDYYYPSHTYGYWGQGTQVTVST”: “high polyreactivity”. In the case of “QVQLVESGGGLVQAGGSLRLICAASGRTLGYNARGWYRQAPGKETELVAAISYGGGGTYYADSVKGRFTISRDNAKNTVYLQMNSLKPEDTAVYYCAKPRAFVGYNHWGQGTQVTVSS”, the “polyreactivity (PSR sort gate)” value is given as “low polyreactivity”. For “QVQLVESGGGLVQAGGSLRLSCAASGFIFGKYAMGWYRQAPGKERELVAAITSDGRTYYADSVKGRFTISRDNAKNTVYLEMNSLKPEDTAVYYCAVDYYWYWYSGYDDYWGQGTQVTVSS” the value was “high polyreactivity”; for “QVQLVESGGGLVQARGSLRLSCAASGSIFRSYAMGWYRQAPGKERELVAAITSGGNTYYADSVKGRFTISRDNAKNTVYLQMNSLKPEDTAVYYCAKRRYNYLSDYDYWGQGTQVTVSS”, “low polyreactivity”. Next, “QVQLVESGGGLVQAGGSLRLSCAASGRIFYRNAMGWYRQAPGKERELVAAITGSTGNTYYADSVKGRFTISRDNAKNTVYLQMNSLKPEDTAVYYCIAGLGRWWHYPATYYYYWGQGTQVTVSS”: “low polyreactivity”.

“QVQLVESGGGLVQAGGRLRLSCAASGFTFSRNTLGWYRQAPGKERELVARITKRGGTTYYADSVKGRFTISRDNAKNTVYLQMNSLKPEDTAVYYCATVGQPSYRAPDGFNYWGQGTQVTVSS”: the “polyreactivity (PSR sort gate)” value was “high polyreactivity”.

Regarding “QVQLVESGGVLVQAGGSLRLSCAASGSTFVTNAMGWYRQAPGKEREFVAAISNSSGSTYYADSVKGRFTISRDNAKNTVYLQMNSLKPEDTAVYYCNATPDDWLQEDYWGQGTQVTVSS”, the “polyreactivity (PSR sort gate)” value was “low polyreactivity”.

As for “QVQLVESGVGLVQAGGSLRLSCAASGGIFVPYAMGWYRQAPGKERELVAGITSGGSTNYADSVKGRFTISRDNAKNTVYLQMNSLKPEDTAVYYCAARRRPGGRYKSRVWYDYWGQGTQVTVSS”, the “polyreactivity (PSR sort gate)” value is reported as “high polyreactivity”. Next, “QVQLVESGGGLVQAGGSLRLSCAASGRIFFRNAMGWYRQAPGKERELVAVINTGGSTNYADSVKGRFTISRDNAKNTVYLQMNSLKPEDTAVYYCAVDRASRRTYNQYGYWGQGTQVTVSS”: “high polyreactivity”.
